IntAct's records for PubMed 19536131

B1: E3 ubiquitin-protein ligase makorin-1 (Homo sapiens), Q9UHC7 (parent)
chain: MAEAATPGTTATTSGAGAAAATAAAASPTPIPTVTAPSLGAGGGGGGSDGSGGGWTKQVTCRYFMHGVCKEGDNCRYSHDLSDSPYSVVCKYFQRGYCIYGDRCRYEHSKPLKQEEATATELTTKSSLAASSSLSSIVGPLVEMNTGEAESRNSNFATVGAGSEDWVNAIEFVPGQPYCGRTAPSCTEAPLQGSVTKEESEKEQTAVETKKQLCPYAAVGECRYGENCVYLHGDSCDMCGLQVLHPMDAAQRSQHIKSCIEAHEKDMELSFAVQRSKDMVCGICMEVVYEKANPSERRFGILSNCNHTYCLKCIRKWRSAKQFESKIIKSCPECRITSNFVIPSEYWVEEKEEKQKLILKYKEAMSNKACRYFDEGRGSCPFGGNCFYKHAYPDGRREEPQRQKVGTSSRYRAQRRNHFWELIEERENSNPFDNDEEEVVTFELGEMLLMLLAAGGDDELTDSEDEWDLFHDELEDFYDLDL

Variants of: B1
Conditions: with ubc_human UBC

| Variant | effect of a mutation on the interaction |
| --- | --- |
| H307E | disrupting interaction |
